Measured values from US11254745.

Columns and labels:
[1] = target: extracellular domain of hCD4 fused with human Fc tag (hCD4-hFc) (human) (UniProt P01730); test: ELISA on human CD4, OD450; fitted EC50 of the control in the table under the graph (unit from the graph's axis)
[2] = target: extracellular domain of hCD4 fused with human Fc tag (hCD4-hFc) (human) (UniProt P01730); test: ELISA on plate-coated CD4-hFc, OD450; fitted EC50 of the negative control in the table under the graph (unit from the graph's axis)

EC50 [1] [µg/mL] | EC50 [2] [µg/mL] | Substance
4.48 | – | Isotype IgG1 (antibody)
0.78 | – | hIgG1 (antibody)
– | 0.542 | mIgG1 (antibody)
